Laboratory results: patent US20140294828A1 (COMPLIX, published 2014)

Molecular target: HIV-1 Env of the HXB2 strain (envelope glycoprotein complex gp120/gp41) (HIV-1 (HXB2 strain), UniProt P04578 33-856)
Experiment: cell-based or functional assay

B1: single-chain Alphabody scAB_Env03_KC (designed binder)
chain: MGHHHHHHHHHHSSGHIEGRHMSIEEIQKPIATIQEAIAWIQKKIYMMTGGSGGGSGGGSGGGSGMSIEEIQKQIAAIQCQIAAIQKQIYAMTGGSGGGSGGGSGGGSGMSIEEIQKQIVAIMEQIVAIVKQISAMTP
modifications: Interchain disulfide between Cys80 of chain 1 and Cys80 of chain 2 (homodimer; paragraph 268, and FIG.11 prints 'scAB_Env03_KC (dimer)').
notes: also called Env03 Cys-mutant
50% inhibitory concentration (IC50), 5-day MTT infection assay, HXB2 virus on MT4-X4 cells: 709 nM
